Data from patent US20060270591A1, “Androgen receptor coregulators” (priority 2002, published 2006).

Assays:
[1] = tested on: AR; assay: AR transactivation assay, MMTV-CAT reporter, transient transfection (Example 1); type: cell-based, human
Procedure: Human prostate cancer DU145 or PC3 cells, or human lung carcinoma cells NCI H1299 were grown in Dulbecco's minimal essential medium (DMEM) containing penicillin (25 U/ml), streptomycin (25˜g/ml), and 5% fetal calf serum (FCS). One hour before transfection, the medium was changed to DMEM with 5% charcoal-stripped FCS. […] A β-galactosidase expression plasmid, pCMV-β-gal, was used as an internal control for transfection efficiency.
(§1) The medium was changed 24 hr posttransfection and the cells treated with either steroid hormones or hydroxyflutamide, and cultured for an additional 24 hr. Cells were harvested and assayed for CAT activity after the cell lysates were normalized by using β-galactosidaseas an internal control. Chloramphenicol acetyltransferase (CA) activity was visualized by PhosphorImager (Molecular Dynamics) and quantitated by ImageQuant software (Molecular Dynamics).

[2] = molecular target: T1, ARA54-ARA54 interactions (Homo sapiens, UniProt Q9UBS8); assay: Mammalian two-hybrid assay of ARA54-ARA54 interaction in DU145 cells; type: cell-based
T1 construct: fl-ARA54, full-length ARA54; expressed in transfected cells; host or cells: DU145
T1 sequence (Q9UBS8 1-474): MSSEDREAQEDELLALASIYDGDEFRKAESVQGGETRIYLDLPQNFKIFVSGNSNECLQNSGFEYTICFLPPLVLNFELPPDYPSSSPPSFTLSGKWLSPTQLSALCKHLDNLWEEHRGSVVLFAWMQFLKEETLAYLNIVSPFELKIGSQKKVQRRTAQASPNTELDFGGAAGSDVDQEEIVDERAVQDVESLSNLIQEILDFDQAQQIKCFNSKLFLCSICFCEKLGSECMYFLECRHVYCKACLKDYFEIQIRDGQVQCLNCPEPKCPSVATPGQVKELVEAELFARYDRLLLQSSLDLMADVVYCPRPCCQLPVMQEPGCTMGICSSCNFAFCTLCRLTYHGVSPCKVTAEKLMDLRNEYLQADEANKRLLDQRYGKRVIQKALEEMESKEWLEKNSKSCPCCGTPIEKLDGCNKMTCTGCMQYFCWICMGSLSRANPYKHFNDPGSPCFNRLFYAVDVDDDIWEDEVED
Procedure: 15. […] DU145 cells were transfected with 2.5 μg of GAL4-hybrid expression plasmid (pGAL0-AR (A) or pCMX-GAL4 DBD-fl-ARA54 (B)), 2.5 μg of VP16-hybrid expression plasmid (pCMX-VP16-fl-ARA54), and 2.5 μg of pG5-CAT, with or without 2.5 μg of pSG5-C′-ARA54 (C′) or pSG5-mt-ARA54 (mt). pCMX-VP16-C′-ARA54 and pCMX-VP16-mt-ARA54 were also cotransfected to test the interactions with AR (A) and fl-ARA54 (B). The total amount of DNA was adjusted to 11.0 μg with pSG5 and/or pVP16 for each transfection. The CAT activity was determined and each CAT activity is presented relative to that of lane 4 in each panel (black bars; set as 100%). Values represent the mean±SD of at least three determinations.
397. DU145 cells were transiently cotransfected with a GAL4-hybrid expression plasmid, a VP16-hybrid expression plasmid, the reporter plasmid pG5-CAT, and the pCMV-O-gal internal control plasmid. Transfections and CAT assays were performed as described above.

[3] = molecular target: T2, PR (Homo sapiens, UniProt P06401); assay: PR transcription activity, MMTV-CAT reporter (Example 1); type: cell-based; details: DU145 cells
T2 construct: expressed in transfected cells; host or cells: DU145, PC-3
T2 sequence (P06401 1-933): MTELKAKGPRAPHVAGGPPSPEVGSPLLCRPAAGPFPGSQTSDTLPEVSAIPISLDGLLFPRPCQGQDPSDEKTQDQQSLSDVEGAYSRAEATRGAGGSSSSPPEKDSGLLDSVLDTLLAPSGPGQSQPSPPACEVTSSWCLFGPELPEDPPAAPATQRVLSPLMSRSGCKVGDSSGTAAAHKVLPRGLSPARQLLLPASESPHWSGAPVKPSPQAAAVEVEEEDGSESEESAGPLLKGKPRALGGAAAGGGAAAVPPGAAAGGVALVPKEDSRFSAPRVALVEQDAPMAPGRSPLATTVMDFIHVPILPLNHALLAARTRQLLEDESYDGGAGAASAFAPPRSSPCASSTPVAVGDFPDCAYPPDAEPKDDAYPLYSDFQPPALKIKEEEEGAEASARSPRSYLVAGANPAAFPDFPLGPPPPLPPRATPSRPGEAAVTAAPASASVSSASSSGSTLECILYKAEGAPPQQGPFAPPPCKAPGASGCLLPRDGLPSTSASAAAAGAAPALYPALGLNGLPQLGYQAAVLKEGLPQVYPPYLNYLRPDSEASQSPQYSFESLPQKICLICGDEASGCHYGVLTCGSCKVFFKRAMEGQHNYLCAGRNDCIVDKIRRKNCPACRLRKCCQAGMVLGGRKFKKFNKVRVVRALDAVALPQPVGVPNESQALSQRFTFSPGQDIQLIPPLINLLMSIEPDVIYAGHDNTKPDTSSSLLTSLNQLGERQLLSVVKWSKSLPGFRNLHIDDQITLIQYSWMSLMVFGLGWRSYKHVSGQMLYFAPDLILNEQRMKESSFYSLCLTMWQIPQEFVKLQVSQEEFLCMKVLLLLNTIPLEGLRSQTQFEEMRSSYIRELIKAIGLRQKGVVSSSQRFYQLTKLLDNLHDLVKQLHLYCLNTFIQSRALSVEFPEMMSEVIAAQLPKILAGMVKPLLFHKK
Procedure: 366. Human prostate cancer DU145 or PC3 cells, or human lung carcinoma cells NCI H1299 were grown in Dulbecco's minimal essential medium (DMEM) containing penicillin (25 U/ml), streptomycin (25˜g/ml), and 5% fetal calf serum (FCS). One hour before transfection, the medium was changed to DMEM with 5% charcoal-stripped FCS. Phenol red-free and serum-free media were used on the experiments employing E2 or TGF-β, respectively. A β-galactosidase expression plasmid, pCMV-β-gal, was used as an internal control for transfection efficiency.
as §1, with “367. Cells were transfected using the calcium phosphate technique (Yeh, et al. Molec. Endocrinol. 8:77-88, 1994). The” for “The”

[4] = tested on: AR; details: prostate cancer cells; androgens or HF; cited from earlier work

AR, sequence (P10275 whole entry): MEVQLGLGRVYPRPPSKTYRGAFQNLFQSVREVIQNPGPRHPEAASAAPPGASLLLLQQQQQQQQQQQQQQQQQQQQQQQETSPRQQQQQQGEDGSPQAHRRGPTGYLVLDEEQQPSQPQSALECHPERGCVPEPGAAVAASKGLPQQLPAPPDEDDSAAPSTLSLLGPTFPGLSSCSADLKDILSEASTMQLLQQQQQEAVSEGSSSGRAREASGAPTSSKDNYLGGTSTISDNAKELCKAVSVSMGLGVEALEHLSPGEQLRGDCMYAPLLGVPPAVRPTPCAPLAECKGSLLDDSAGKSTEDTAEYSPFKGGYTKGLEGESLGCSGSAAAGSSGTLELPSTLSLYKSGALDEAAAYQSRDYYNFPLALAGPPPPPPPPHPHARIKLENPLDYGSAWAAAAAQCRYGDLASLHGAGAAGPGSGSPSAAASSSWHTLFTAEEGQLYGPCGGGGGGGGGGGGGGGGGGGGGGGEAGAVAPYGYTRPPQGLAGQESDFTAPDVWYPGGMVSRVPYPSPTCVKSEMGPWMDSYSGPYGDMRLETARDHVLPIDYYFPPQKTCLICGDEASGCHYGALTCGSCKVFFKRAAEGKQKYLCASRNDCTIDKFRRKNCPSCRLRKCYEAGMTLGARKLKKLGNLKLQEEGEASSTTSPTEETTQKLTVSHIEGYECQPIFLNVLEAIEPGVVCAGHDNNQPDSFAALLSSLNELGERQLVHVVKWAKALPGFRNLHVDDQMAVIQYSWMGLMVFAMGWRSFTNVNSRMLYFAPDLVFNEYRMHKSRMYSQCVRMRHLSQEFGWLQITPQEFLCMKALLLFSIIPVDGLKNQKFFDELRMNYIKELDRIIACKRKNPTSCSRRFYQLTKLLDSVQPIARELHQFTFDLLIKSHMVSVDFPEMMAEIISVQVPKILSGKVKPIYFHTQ

B1: C′-ARA54: C-terminal region (amino acids 361-474) of ARA54 (protein)
chain: RNEYLQADEANKRLLDQRYGKRVIQKALEEMESKEWLEKNSKSCPCCGTPIEKLDGCNKMTCTGCMQYFCWICMGSLSRANPYKHFNDPGSPCFNRLFYAVDVDDDIWEDEVED
modifications: Homo sapien
notes: C-terminal region (amino acids 361-474) of ARA54
With B1 the “inhibition of AR-mediated transcription” value ([1]; H1299 cells, endogenous ARA54) was “up to 70%” and the “CAT activity of GAL4-fl-ARA54 / VP16-fl-ARA54 interaction” value [2] was “returned to the basal levels”.

B2: ARA54: 54 kDa protein that interacts with AR in an androgen-dependent manner; AR coactivator (protein)
chain: MSSEDREAQEDELLALASIYDGDEFRKAESVQGGETRIYLDLPQNFKIFVSGNSNECLQNSGFEYTICFLPPLVLNFELPPDYPSSSPPSFTLSGKWLSPTQLSALCKHLDNLWEEHRGSVVLFAWMQFLKEETLAYLNIVSPFELKIGSQKKVQRRTAQASPNTELDFGGAAGSDVDQEEIVDERAVQDVESLSNLIQEILDFDQAQQIKCFNSKLFLCSICFCEKLGSECMYFLECRHVYCKACLKDYFEIQIRDGQVQCLNCPEPKCPSVATPGQVKELVEAELFARYDRLLLQSSLDLMADVVYCPRPCCQLPVMQEPGCTMGICSSCNFAFCTLCRLTYHGVSPCKVTAEKLMDLRNEYLQADEANKRLLDQRYGKRVIQKALEEMESKEWLEKNSKSCPCCGTPIEKLDGCNKMTCTGCMQYFCWICMGSLSRANPYKHFNDPGSPCFNRLFYAVDVDDDIWEDEVED
For B2, the “enhancement of the transcription activity of AR” value ([1]; DU145 cells) was “up to 6 fold”, the “enhancement of wtAR transactivation by coexpression” value ([1]; wtAR, DHT 10^−10 to 10^−8 M) was 3-5 fold and the “enhancement of the transcription activity of PR” value [3] was 3-5 fold. For the same molecule, the “enhancement of transactivation of wild-type AR and LNCaP mutant AR” value [4] was 2-6 fold.
